Columns and labels:
[1] = target: T1, recombinant purified human IL-12 p70 (human, UniProt P29459 23-219); experiment: competition ELISA on coated human IL-12, competitor of 0.8 µg/ml biotinylated 8E1, average
T1 construct: Disulfide-linked heterodimer of p35 and p40; also called hIL-12; Hu IL-12
T1 sequence 1: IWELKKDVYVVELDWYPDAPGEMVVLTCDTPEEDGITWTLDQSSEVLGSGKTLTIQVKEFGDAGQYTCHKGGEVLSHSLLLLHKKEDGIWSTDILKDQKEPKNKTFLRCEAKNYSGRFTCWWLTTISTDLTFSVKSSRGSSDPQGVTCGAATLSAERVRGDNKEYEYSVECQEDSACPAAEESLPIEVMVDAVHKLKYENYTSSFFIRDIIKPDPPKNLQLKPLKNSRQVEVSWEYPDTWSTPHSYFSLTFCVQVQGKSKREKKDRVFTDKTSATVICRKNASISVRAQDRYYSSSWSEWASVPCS
T1 sequence 2: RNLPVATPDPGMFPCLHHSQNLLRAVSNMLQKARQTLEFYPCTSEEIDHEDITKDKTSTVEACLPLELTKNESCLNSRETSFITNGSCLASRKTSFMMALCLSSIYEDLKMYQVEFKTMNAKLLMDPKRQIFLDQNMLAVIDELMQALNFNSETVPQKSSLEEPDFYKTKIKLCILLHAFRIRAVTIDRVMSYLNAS
Description: MaxiSorp ELISA plates (Nalge Nunc International) were coated overnight at 4° C. with 100 μl/well of 1.0 μg/ml human IL-12 in 0.2 M sodium carbonate-bicarbonate buffer, pH 9.4, washed with Wash Buffer (PBS containing 0.1% Tween 20), and blocked for 1 hr at room temperature with 300 μl/well of SuperBlock Blocking Buffer in TBS (Pierce Chemical Company). […] As isotype controls, 100 μl/well of 100 μg/ml mouse IgG 1/κ (MuFd79) or humanized IgG1/κ (HuFd79) monoclonal antibodies in ELISA buffer was used. As a no-competitor control, 100 μl/well of ELISA Buffer was used. After incubating the plates for 1 hr at room temperature, and washing with Wash Buffer, bound antibodies were detected using 100 μl/well of 1 μg/ml HRP-conjugated streptavidin (Pierce Chemical Company) in ELISA buffer. After incubating for 1 hr at room temperature, and washing with Wash Buffer, color development was performed by adding 100 μl/well of ABTS Peroxidase Substrate/Peroxidase Solution B (KPL, Inc.). After incubating for 5 min at room temperature, color development was stopped by adding 50 μl/well of 2% oxalic acid. Absorbance was read at 415 nm.
The affinity of 8E1.4, 8E1.5 and 8E1.6 to human IL-12 was analyzed by competition ELISA as described above.

[2] = target: T2, recombinant purified mouse IL-12 (Peprotech) (mouse, UniProt P43432 23-335; P43431 23-215); experiment: indirect ELISA, mAb captured on anti-mouse IgG Fc, mouse IL-12 at 0.2 ug/ml
T2 construct: Bought reagent; also called mu IL-12; murine IL-12
T2 sequence (looked up) 1: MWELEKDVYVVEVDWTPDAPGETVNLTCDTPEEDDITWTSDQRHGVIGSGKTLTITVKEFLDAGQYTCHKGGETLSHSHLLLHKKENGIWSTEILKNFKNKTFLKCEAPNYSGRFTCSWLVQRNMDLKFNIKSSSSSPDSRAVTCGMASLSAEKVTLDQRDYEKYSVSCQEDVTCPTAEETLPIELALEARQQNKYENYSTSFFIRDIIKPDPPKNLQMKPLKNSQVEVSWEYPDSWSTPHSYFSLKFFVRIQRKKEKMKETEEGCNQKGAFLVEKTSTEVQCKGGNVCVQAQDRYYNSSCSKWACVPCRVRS
T2 sequence (looked up) 2: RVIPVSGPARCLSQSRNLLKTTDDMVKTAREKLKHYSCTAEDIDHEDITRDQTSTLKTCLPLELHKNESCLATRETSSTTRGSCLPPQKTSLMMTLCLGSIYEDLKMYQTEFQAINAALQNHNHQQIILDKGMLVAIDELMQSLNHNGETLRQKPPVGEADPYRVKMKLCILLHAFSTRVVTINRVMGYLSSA
Description: Second, an indirect ELISA was set up by coating ELISA plates with 5 ug/ml of goat anti-mouse IgG, Fc fragment specific antibody (Pierce #31170, Rockland, Ill.). Murine anti-human IL-12 p40 mAbs were prepared at various concentrations ranging from 0.1 to 100 ng/ml in PBS containing 0.1% BSA; 50 ul of each antibody dilution was added to the coated ELISA plate and incubated for 1 hour at room temperature. Wells were washed 3 times with PBS containing 0.05% Tween-20. Recombinant purified mouse IL-12 (Preprotech) was diluted at 0.2 ug/ml in PBS containing 0.1% BSA; 50 ul/well was added and the plates incubated for 1 hour at room temperature. Wells were washed 3 times with PBS containing 0.05% Tween-20. Biotinylated anti-mouse IL-12 antibody (R&D # BAF419) was diluted at 0.2 ug/ml in PBS containing 0.1% BSA; 50 ul/well was added and the plates incubated for 1 hour at room temperature. Wells were washed 3 times with PBS containing 0.05% Tween-20. Streptavidin HRP (Pierce #21126, Rockland, Ill.) was diluted 1:20000 in PBS containing 0.1% BSA; 50 μL/well was added and the plates incubated for 1 hour at room temperature. Plates were washed 3 times with PBS containing 0.05% Tween-20. Fifty microliters of TMB solution was added to each well and incubated for 10 minutes at room temperature. […] Plates were read spectrophotmetrically at a wavelength of 450 nm.

[3] = target: T1, recombinant purified human IL-12 p70; experiment: cell-based or functional assay
[4] = target: T3, recombinant purified cyno IL-12 p70 (cynomolgus monkey); experiment: cell-based or functional assay
T3 chain 1: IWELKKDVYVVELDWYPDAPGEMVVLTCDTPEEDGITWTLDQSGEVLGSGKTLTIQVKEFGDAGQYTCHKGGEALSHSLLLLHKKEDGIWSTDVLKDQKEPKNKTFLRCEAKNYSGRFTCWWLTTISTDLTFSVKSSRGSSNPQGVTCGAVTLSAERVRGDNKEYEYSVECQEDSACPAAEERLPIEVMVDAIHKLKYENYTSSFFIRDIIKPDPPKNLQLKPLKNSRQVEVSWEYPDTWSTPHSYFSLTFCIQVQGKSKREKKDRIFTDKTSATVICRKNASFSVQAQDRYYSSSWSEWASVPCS
T3 chain 2: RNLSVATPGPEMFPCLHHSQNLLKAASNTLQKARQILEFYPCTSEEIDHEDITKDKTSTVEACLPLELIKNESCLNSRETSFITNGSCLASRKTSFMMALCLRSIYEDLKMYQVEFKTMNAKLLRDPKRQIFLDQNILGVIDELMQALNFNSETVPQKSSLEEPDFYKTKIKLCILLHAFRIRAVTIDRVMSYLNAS

B1: murine anti-human IL-12p40 monoclonal antibody 8E1 (antibody, V domains shown)
VH: EVKLVESGGGLVQPGGSRKLSCAASGFTFSDYGMVWVRQAPGKGLEWVASISSGSSNIYYADTVKGRFTISRDDPNNTLFLQMRSLRSEDTAMYYCARNPYWGQGTTLTVSS
VL: DIVMTQSQKFMSTSVGDRVSVTCKASQNVGTNVAWYQQKPGQSPKGLIYSASHRYSGVPDRFAGSGSGTDFTLTISNVQSEDLAEYFCQQYNSYPLTFGGGTKLELKR
notes: Murine mAb; also called biotinylated 8E1
Q: What does the source list for B1?
A: IC50 [1]: 2.56 µg/mL; binding result [2]: no binding (tested: 0.1 to 100 ng/ml mAb); Average IC50 (nM) Human IL-12, PHA blast IFN-γ assay [3]: 0.19 nM; Average IC50 (nM) Cyno IL-12, PHA blast IFN-γ assay [4]: 0.18 nM
